Test results: publication doi:10.1101/2020.03.08.831909 (2020)

Assays:
[1] = biological target: His6-OptoMB_(V416I_G528A_N538E) fused to an N-terminus SUMO tag, purified (Avena sativa, UniProt O49003 408-543, V416I | G528A | N538E); test: BLI; light conformation (lit-mimetic mutant)
[2] = biological target: OptoMB_(C450V), light-insensitive, His-tagged, purified (Avena sativa, UniProt O49003 408-543, C450V); test: BLI; dark conformation (C450V)

B1: YFP-SH2, purified (fusion of yellow fluorescent protein and SH2) (domain or fragment)
chain: SLEKHSWYHGPVSRNAAEYLLSSGINGSFLVRESESSPGQRSISLRYEGRVYHYRINTASDGKLYVSSESRFNTLAELVHHHSTVADGLITTLHYPAPKRNKPTVYGVSPNY
[1]
  Kd: 21.7 µM
  koff: 0.0489 s⁻¹
[2]
  koff: 0.00753 s⁻¹
